The source of these data is publication PMC6910952 (Nature Communications, 2019).

A word on the Kd: it is the constant that tells how readily two partners part at equilibrium. The low end stands for higher affinity, the high end for lower affinity.

What all share (conditions): both partners purified
The target of test [1] is T1, yNpl4^113–580 (E123A K124A E125A) (Saccharomyces cerevisiae, UniProt P33755 113-580, E123A | K124A | E125A).
T1 construct: not shown: GST, N-terminal, cleaved
T1 sequence (looked up): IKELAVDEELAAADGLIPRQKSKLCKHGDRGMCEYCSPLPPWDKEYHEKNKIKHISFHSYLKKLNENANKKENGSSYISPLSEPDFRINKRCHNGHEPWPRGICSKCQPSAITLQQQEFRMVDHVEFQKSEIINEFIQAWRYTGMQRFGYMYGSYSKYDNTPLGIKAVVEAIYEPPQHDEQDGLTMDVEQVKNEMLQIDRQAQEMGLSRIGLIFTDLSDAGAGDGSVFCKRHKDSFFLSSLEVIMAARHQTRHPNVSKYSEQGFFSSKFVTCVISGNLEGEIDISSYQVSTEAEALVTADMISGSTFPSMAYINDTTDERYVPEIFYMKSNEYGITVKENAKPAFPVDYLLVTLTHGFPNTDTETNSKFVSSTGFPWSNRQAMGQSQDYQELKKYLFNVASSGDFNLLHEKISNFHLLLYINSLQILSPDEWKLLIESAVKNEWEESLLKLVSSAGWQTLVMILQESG
Nature of the test: crystal structure; yNpl4^113–580 (E123A K124A E125A)–yUfd1^288–305 complex; sitting drop, 20 °C, 90 mM Bis-Tris-HCl pH 7.5, 19% PEG3350, 10 mM ATP.

A further test deals with T2, M1-Ub2 (UniProt P0CG48 1-76; P0CG48 1-76).
T2 construct: ubiquitin (Ub), first unit; ubiquitin (Ub), second unit
In words: SPR; Biacore T200, 25 °C; wild-type or mutant His6-yNpl4^113–580, yUfd1–His6-yNpl4^113–580 or His6-hNpl4 immobilized on a CM5 chip by amine coupling; Ub2 or Ub4 in two-fold dilution series injected 60 s at 10 μL per min in 10 mM HEPES-NaOH pH 7.5, 150 mM NaCl, 0.05% Tween-20, 0.5 g/L BSA; equilibrium Kd. A general note: SPR reads the build-up and loss of mass on a sensor chip optically.

For a further test, the target named is T3, M1-Ub4 (UniProt P0CG48 1-76; P0CG48 1-76; P0CG48 1-76; P0CG48 1-76).
T3 construct: ubiquitin (Ub), first unit; ubiquitin (Ub), second unit; ubiquitin (Ub), third unit; ubiquitin (Ub), fourth unit
The description is as above.

Test [2] addresses T4, Cdc48 (recombinant, hexameric) (Saccharomyces cerevisiae, UniProt P25694 1-835).
T4 construct: Cdc48 AAA-family ATPase of Saccharomyces cerevisiae; source: E. coli Rosetta (DE3) (pET21a), purified (TALON resin, Superose 6)
Nature of the test: pull-down; GST-yUfd1 (0.5 μM) on Glutathione Sepharose 4B beads with His6-tagged Npl4 (wild type or mutant), Cdc48 and K48 chains; same binding buffer (Supplementary Fig. 3b).

Values joined by “and” are separate entries in the source; they are usually repeats but may differ in a detail not shown here. Equal values may be shown once.

T4 sequence (P25694 whole entry): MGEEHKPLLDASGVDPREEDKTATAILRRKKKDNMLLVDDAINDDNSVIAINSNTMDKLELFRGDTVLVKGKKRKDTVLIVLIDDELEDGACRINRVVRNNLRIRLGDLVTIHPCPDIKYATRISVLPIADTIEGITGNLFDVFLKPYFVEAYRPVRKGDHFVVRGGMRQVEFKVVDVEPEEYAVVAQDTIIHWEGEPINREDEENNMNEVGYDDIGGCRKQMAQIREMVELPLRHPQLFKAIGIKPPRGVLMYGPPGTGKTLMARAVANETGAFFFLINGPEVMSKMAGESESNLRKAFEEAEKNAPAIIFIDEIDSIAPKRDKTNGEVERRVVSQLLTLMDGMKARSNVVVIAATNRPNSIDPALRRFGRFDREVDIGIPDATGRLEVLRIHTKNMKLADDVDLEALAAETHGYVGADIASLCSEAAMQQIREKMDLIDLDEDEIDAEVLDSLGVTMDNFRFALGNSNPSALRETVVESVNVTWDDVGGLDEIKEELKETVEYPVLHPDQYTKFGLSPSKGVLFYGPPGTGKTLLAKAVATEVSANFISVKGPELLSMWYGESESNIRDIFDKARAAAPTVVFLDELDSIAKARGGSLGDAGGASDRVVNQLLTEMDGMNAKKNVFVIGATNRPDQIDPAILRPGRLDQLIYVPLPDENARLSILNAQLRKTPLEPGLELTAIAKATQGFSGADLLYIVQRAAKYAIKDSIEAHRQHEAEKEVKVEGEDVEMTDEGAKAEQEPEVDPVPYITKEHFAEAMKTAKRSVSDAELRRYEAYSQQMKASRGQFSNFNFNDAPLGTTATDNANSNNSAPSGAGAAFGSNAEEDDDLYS

B1: yUfd1^288–305 (peptide, UniProt P53044 288-305, looked up)
chain: EPAKLDLPEGQLFFGFPM
notes: also called yUfd1 NBM; not shown: GST, N-terminal, cleaved
As for B1, the binding result in test [1] is “binds”.

B2: His6-yNpl4^113–580 (domain or fragment, Saccharomyces cerevisiae, UniProt P33755 113-580, looked up)
chain: IKELAVDEELEKEDGLIPRQKSKLCKHGDRGMCEYCSPLPPWDKEYHEKNKIKHISFHSYLKKLNENANKKENGSSYISPLSEPDFRINKRCHNGHEPWPRGICSKCQPSAITLQQQEFRMVDHVEFQKSEIINEFIQAWRYTGMQRFGYMYGSYSKYDNTPLGIKAVVEAIYEPPQHDEQDGLTMDVEQVKNEMLQIDRQAQEMGLSRIGLIFTDLSDAGAGDGSVFCKRHKDSFFLSSLEVIMAARHQTRHPNVSKYSEQGFFSSKFVTCVISGNLEGEIDISSYQVSTEAEALVTADMISGSTFPSMAYINDTTDERYVPEIFYMKSNEYGITVKENAKPAFPVDYLLVTLTHGFPNTDTETNSKFVSSTGFPWSNRQAMGQSQDYQELKKYLFNVASSGDFNLLHEKISNFHLLLYINSLQILSPDEWKLLIESAVKNEWEESLLKLVSSAGWQTLVMILQESG
notes: codon-optimized synthetic cDNA; also called WT; WT #1; source: E. coli Rosetta (DE3), purified (Ni-NTA, Resource Q); also in lysate, mixed with cells expressing GST-yUfd1 for co-purification; not shown: His6, N-terminal, kept
With B2, the Kd is 333 µM and 420 µM with M1-Ub2; 139 µM and 103 µM with M1-Ub4.

B3: GST-yUfd1 (full length) (natural protein, Saccharomyces cerevisiae, UniProt P53044 1-361, looked up)
chain: MFSGFSSFGGGNGFVNMPQTFEEFFRCYPIAMMNDRIRKDDANFGGKIFLPPSALSKLSMLNIRYPMLFKLTANETGRVTHGGVLEFIAEEGRVYLPQWMMETLGIQPGSLLQISSTDVPLGQFVKLEPQSVDFLDISDPKAVLENVLRNFSTLTVDDVIEISYNGKTFKIKILEVKPESSSKSICVIETDLVTDFAPPVGYVEPDYKALKAQQDKEKKNSFGKGQVLDPSVLGQGSMSTRIDYAGIANSSRNKLSKFVGQGQNISGKAPKAEPKQDIKDMKITFDGEPAKLDLPEGQLFFGFPMVLPKEDEESAAGSKSSEQNFQGQGISLRKSNKRKTKSDHDSSKSKAPKSPEVIEID
notes: Ufd1 of Saccharomyces cerevisiae (yUfd1), full length; also called GST-Ufd1; source: E. coli Rosetta (DE3) (pGEX-6P1), purified (Glutathione Sepharose FF, Resource Q); not shown: GST, N-terminal, kept
On to B3, for which the binding result in test [2] is “binds”.
